In US20090142784:

Experiments:
[1] = molecular target: T1, LRRKtide peptide (RLGRDKYKTLRQIRQ)
T1 chain: RLGRDKYKTLRQIRQ

[2] = molecular target: T2, Nictide (RLGWWRFYTLRRARQGNTKQR)
T2 chain: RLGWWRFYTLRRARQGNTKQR

B1: GST-LRRK2[1326-2527, G2019S] (protein)
chain: LKKAVPYNRMKLMIVGNTGSGKTTLLQQLMKTKKSDLGMQSATVGIDVKDWPIQIRDKRKRDLVLNVWDFAGREEFYSTHPHFMTQRALYLAVYDLSKGQAEVDAMKPWLFNIKARASSSPVILVGTHLDVSDEKQRKACMSKITKELLNKRGFPAIRDYHFVNATEESDALAKLRKTIINESLNFKIRDQLVVGQLIPDCYVELEKIILSERKNVPIEFPVIDRKRLLQLVRENQLQLDENELPHAVHFLNESGVLLHFQDPALQLSDLYFVEPKWLCKIMAQILTVKVEGCPKHPKGIISRRDVEKFLSKKRKFPKNYMSQYFKLLEKFQIALPIGEEYLLVPSSLSDHRPVIELPHCENSEIIIRLYEMPYFPMGFWSRLINRLLEISPYMLSGRERALRPNRMYWRQGIYLNWSPEAYCLVGSEVLDNHPESFLKITVPSCRKGCILLGQVVDHIDSLMEEWFPGLLEIDICGEGETLLKKWALYSFNDGEEHQKILLDDLMKKAEEGDLLVNPDQPRLTIPISQIAPDLILADLPRNIMLNNDELEFEQAPEFLLGDGSFGSVYRAAYEGEEVAVKIFNKHTSLRLLRQELVVLCHLHHPSLISLLAAGIRPRMLVMELASKGSLDRLLQQDKASLTRTLQHRIALHVADGLRYLHSAMIIYRDLKPHNVLLFTLYPNAAIIAKIADYSIAQYCCRMGIKTSEGTPGFRAPEVARGNVIYNQQADVYSFGLLLYDILTTGGRIVEGLKFPNEFDELEIQGKLPDPVKEYGCAPWPMVEKLIKQCLKENPQERPTSAQVFDILNSAELVCLTRRILLPKNVIVECMVATHHNSRNASIWLGCGHTDRGQLSFLDLNTEGYTSEEVADSRILCLALVHLPVEKESWIVSGTQSGTLLVINTEDGKKRHTLEKMTDSVTCLYCNSFSKQSKQKNFLLVGTADGKLAIFEDKTVKLKGAAPLKILNIGNVSTPLMCLSESTNSTERNVMWGGCGTKIFSFSNDFTIQKLIETRTSQLFSYAAFSDSNIITVVVDTALYIAKQNSPVVEVWDKKTEKLCGLIDCVHFLREVMVKENKESKHKMSYSGRVKTLCLQKNTALWIGTGGGHILLLDLSTRRLIRVIYNFCNSVRVMMTAQLGSLKNVMLVLGYNRKNTEGTQKQKEIQSCLTVWDINLPHEVQNLEKHIEVRKELAEKMRRTSVE
Km (phosphorylation of LRRKtide, P81 paper 32P assay) [1]: a similar Km of approximately 200 µM | Km (concentration dependent phosphorylation of Nictide, 5 min reactions) [2]: Calculated Km values are 6 µM for Nictide
